This is an account of results in publication PMC10942606.

The target in the assay is T1, SpPCNA (recombinant S. pombe PCNA) (S. pombe), Q03392.
T1 chain: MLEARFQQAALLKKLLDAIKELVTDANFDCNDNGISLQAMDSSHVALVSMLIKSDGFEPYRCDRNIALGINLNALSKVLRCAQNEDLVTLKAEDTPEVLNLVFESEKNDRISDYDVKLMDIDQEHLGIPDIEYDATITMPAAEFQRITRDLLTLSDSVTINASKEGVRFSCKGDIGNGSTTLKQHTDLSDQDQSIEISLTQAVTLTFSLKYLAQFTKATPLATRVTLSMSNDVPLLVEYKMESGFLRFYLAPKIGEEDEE
Nature of the assay: ITC. (In ITC the heat of successive injections is recorded.)

On to KNTAQSKPQQKSIMSFFGKK (modifications not checked) [Cdc27_PIP peptide], for which the Kd (in general, a measure of binding affinity in units of concentration) was determined as 3.5 µM; the dH was -4.8 kCal.M^–1; the stoichiometry N (in general, a count of units in the complex or per binding partner) worked out at 0.9.

In the case of QLKLNNFF (modifications not checked) [Pcf1_PIP peptide], the Kd came out at 7.1 µM, the dH is -2.9 kCal.M^–1 and the stoichiometry N was found to be 0.97.
